# Key:
# [1] = substrate: O=C(O)C[C@H](C(=O)O)[C@@H](O)C(=O)O; assay: NADP+ reduction at A340, Michaelis-Menten fit; assay type: biochemical, Synechocystis sp. PCC 6803; conditions: decarboxylation, 0.15 mM NADP+, 10 mM HEPES pH 8.0, 40 mM MgCl2
# [2] = substrate: O=C(O)CCC(=O)C(=O)O; assay: NADPH decrease at A340, Michaelis-Menten fit; assay type: biochemical, Synechocystis sp. PCC 6803; conditions: carboxylation, 50 mM sodium bicarbonate fixed, 0.15 mM NADPH, 10 mM HEPES pH 8.0, 40 mM MgCl2
# [3] = substrate: O=C(O)CCC(=O)C(=O)O; assay: coupled Fd/FNR assay, NADP+ reduction at A340, Michaelis-Menten fit; assay type: biochemical, Chlorobaculum tepidum; conditions: decarboxylation, 0.5 mM CoA fixed, 0.15 mM NADP+, 0.1 μM FNR, 1 μM Synechocystis Fd (slr1382), 1 mM MgCl2, 1 mM DTT, 1 mM TPP, pH 7.5, 30 °C, anaerobic, kcat per αβ-protomer
# From the text: (§1) coupled Fd/FNR assay, NADP+ reduction at A340, Michaelis-Menten fit on CtOGOR (2-oxoglutarate:ferredoxin oxidoreductase)
# [4] = substrate: CC(C)(COP(=O)(O)OP(=O)(O)OC[C@H]1O[C@@H](n2cnc3c(N)ncnc32)[C@H](O)[C@@H]1OP(=O)(O)O)[C@@H](O)C(=O)NCCC(=O)NCCS; assay: as above; assay type: biochemical, Chlorobaculum tepidum; conditions: decarboxylation, 5 mM 2-oxoglutarate fixed, 0.15 mM NADP+, 0.1 μM FNR, 1 μM Synechocystis Fd (slr1382), 1 mM MgCl2, 1 mM DTT, 1 mM TPP, pH 7.5, 30 °C, anaerobic, kcat per αβ-protomer
# From the text: as §1
# [5] = substrate: CC(C)(COP(=O)(O)OP(=O)(O)OC[C@H]1O[C@@H](n2cnc3c(N)ncnc32)[C@H](O)[C@@H]1OP(=O)(O)O)[C@@H](O)C(=O)NCCC(=O)NCCSC(=O)CCC(=O)O; assay: coupled Fd/FNR assay, NADPH decrease at A340, Michaelis-Menten fit; assay type: biochemical, Chlorobaculum tepidum; conditions: carboxylation, 50 mM sodium bicarbonate fixed, 0.15 mM NADPH, 0.1 μM FNR, 1 μM Synechocystis Fd (slr1382), 1 mM MgCl2, 1 mM DTT, 1 mM TPP, pH 7.5, 30 °C, anaerobic, kcat per αβ-protomer
# From the text: coupled Fd/FNR assay, NADPH decrease at A340, Michaelis-Menten fit on CtOGOR (2-oxoglutarate:ferredoxin oxidoreductase)
Protein,Km [1],Km [2],Km [3],kcat [3],kcat/Km [3],Km [4],kcat [4],kcat/Km [4],Km [5],kcat [5],kcat/Km [5]
Icd (isocitrate dehydrogenase) (Synechocystis sp. PCC 6803 substr. Kazusa) (protein) MYEKLQPPSVGSKITFVAGKPVVPNDPIIPYIRGDGTGVDIWPATELVINAAIAKAYGGREEINWFKVYAGDEACELYGTYQIFPEDTLTAIKEYGVAIKGPLTTPVGGGIRSLNVALRQIFDLYTCVRPCRYYPGTPSPHKTPEKLDIIVYRENTEDIYLGIEWAEGTEGAKKLIAYLNDELIPTTPALGKKQIRLDSGIGIKPISKTGSQRLVRRAILHAKRLPKAKQMVTLVHKGNIMKFTEGPFRDWGYELATTEFRAECVTERESWICGNKESNPDLTIEANAHMIDPGYDTLTEEKQAVIKQEVEQVLNSIWESHGNGQWKEKVMVNDRIADSIFQQIQTRPDEYSILATMNLNGDYLSDAAAAVVGGLGMGPGANIGDSAAIFEATHGTAPKHAGLDRINPGSVILSGVMMLEFMGWQEAADLIKKGIGAAIANREVTYDLARLMEPKVDKPLKCSEFAQAIVSHFDD,121 ± 13 µM,1003 µM,–,–,–,–,–,–,–,–,–
"CtOGOR (2-oxoglutarate:ferredoxin oxidoreductase) (Chlorobaculum tepidum TLS) (protein, heterotetramer (alpha-beta)2, 220 kDa; N-terminal His6-KorA and C-terminal strep-tagged KorB, tags kept; codon-optimised genes; E. coli BL21(DE3); Fe-S clusters and TPP reconstituted) chain 1: MSDTVILNNNDMVISKTNVSVLFAGDSGDGMQLTGTQFANTVAVYGSDLNTFPNFPSEIRPPAGTVAGVSGFQLQFGTTGVYTPGAKFDVMIAMNAAALKANLKNLHHGGIIIADTDGFDAKNLNLAGYGETNNPLEDGTLTDYTVFKIPVISLTRQALADTGLSTKIIDRCKNMFVLGVLYWLYSLPLETTIEALQSKFKNKQDIAEANIKAVKAGYNFGDETEMFSQHGRFCVPPAQKKKGVYRRVTGNEASAIGLAAAAQKAGLELFLGSYPITPASEILQTLAGLKKWGVKTFQAEDEIAGILTSIGAAYGGALAATNTSGPGLALKTEGMGLAVILELPLVIINVMRGGPSTGLPTKPEQSDLLMAMYGRHGEAPMPVIAAMSPVDCFYAAYEAAKIAVEYMTPVLCLTDGYLALSSEPMLVPSPDELASITPMFSPERKADDPPYLPYKRDERCVRPWGIPGTPGLEHRIGGLEKQNETGHVSHDPENHALMTRLRAEKVAKVADIIPDLTIDNGPEKGDLLVLGWGSTYGAIKKAVEQAREGGLDVAHAHLRYINPFPKNLGAMLGNFKKVLIPENNCGQLLSLIRDKFLIEPVGFSKVQGLPFNEMEIEEKITDILKEL chain 2: MTDTHTCLTAKDFTSNQEPKWCPGCGDFMVLQQLKNAMAELCLKTEEVVVVSGIGCSSRLPYYINTYGVHGIHGRAMAMASGLKVARPDLSVWVGTGDGDALSIGGNHYIHTVRRNLDINVVLFNNEIYGLTKGQYSPTSKVGLRTVTSPTGVVDYPINTIALTLGAGGTFVARVMDRDGKLMKEIFKRAHNHKGTSIVEIYQNCPIFNDGAFRAFSDKERKDDTTLYLEQGQPLVFGANGSKGIYLDGFKPTVIDLEKSGVSKDDLWIHDENDLIKANILSRFFDDPNSTEEFLPRPFGIFYVEDRFTYEQALSAQIDKAQEKGEGTLEELLAGNSTWTIN",–,–,1689 ± 92 µM,8.4 ± 0.1 s⁻¹,5000 ± 100 M⁻¹ s⁻¹,42 ± 15 µM,8.1 ± 0.2 s⁻¹,192000 ± 2400 M⁻¹ s⁻¹,24 ± 2 µM,2.6 ± 0.1 s⁻¹,110000 ± 3500 M⁻¹ s⁻¹

# Source: paper PMC9855186, “Photoautotrophic Growth Rate Enhancement of Synechocystis sp. PCC6803 by Heterologous Production of 2-Oxoglutarate:Ferredoxin Oxidoreductase from Chlorobaculum tepidum” (Biology, 2022)
